Changes are numbered by the printed parent chain.
Legend:
[1] = target: T1, anti-NP antibody 3B62, afucosylated IgG (monomeric, or as immune complex with NP-BSA) (chain 1 pos 82 (Asn297 EU): afucosylated N-glycan; the Fc is a disulfide-linked homodimer; in FIG. 11E it is complexed with NP-BSA through the Fab arms); experiment: competition ELISA: nanobody pre-complexed with monomeric afucosylated 3B62, then captured on coated FcγRI; the blocked ligand is FcγRI
T1 construct: Immune complexes made with NP-BSA (27 conjugations) at a 10:1 molar ratio; also called monomeric 3B62; IgG immune complexes
Experimental: Recombinant FcγR ectodomains were expressed in Expi-293F and purified with Ni-NTA resin as in previously described protocols (S. Chakraborty et al., Sci. Transl. Med., eabm7853 (2022)). […] Plates were then blocked with PBS plus 2% (w/v) BSA. IgG immune complexes were prepared by incubation of an anti-NP (4-hydroxy-3-nitrophenylacetyl) antibody 3B62 with NP-BSA (27 conjugations) at a 10:1 molar ratio for 1h at 4° C. […] IgG immune complexes or monomeric 3B62 were brought to a concentration of 20 ug ml⁻¹ or 2 μg/ml respectively and pre-complexed at a 1:1 (v/v) ratio for 1h at room temperature and then captured on FcγR-coated plates. Following 1h incubation, bound IgG was detected using a 1:5000 dilution of horseradish peroxidase (HRP)-conjugated goat F(ab′)₂ anti-human IgG (H+L) (Jackson Immunoresearch). Plates were developed with TMB (3,3′,5,5′-tetramethylbenzidine) two-component peroxidase substrate kit. Reactions were quenched with 1M phosphoric acid. Absorbance at 450 nm was recorded using a SpectraMax Plus spectrophotometer (Molecular Devices). Background absorbance was subtracted for samples, and % maximum binding was determined against an IgG or immune complex only control.

[2] = target: T2, aglycosylated 3B62 N297A mutant (aglycosylated (no N-glycan after N297A); the Fc is a disulfide-linked homodimer); experiment: SPR (Biacore T200)
T2 construct: 297 is an EU position, not a position on the UniProt entry; also called aglycosylated N297A IgG1 mutant; aglycosylated IgG
Experimental: Traces are raw data, while 1:1 Langmuir global kinetic fits are shown in black.
Surface Plasmon Resonance (SPR) was performed on a Biacore T200 machine (Cytiva Life Sciences). In some experiments, purified IgG glycoforms diluted in HBS-EP+ were immobilized on the surface of a Protein A or Protein G CM5 sensor chip at 1000 RU (˜50 nM). Purified nanobodies were flowed over IgG-bound sensor chips at the indicated concentrations at 30 uL/minute for 60 seconds, followed by 600 seconds of dissociation. Sensor chips were regenerated with 10 mM Glycine-HCl pH 1.5.

[3] = target: T3, IgG1 S2G2 glycoform (antibody clone not named); experiment: ELISA with B7; the concentration of the IgG1 glycoform is varied
T3 construct: also called afucosylated form of IgG1

[4] = target: T4, Rituximab G2 (galactosylated afucosylated glycoform); experiment: SPR (Biacore T200), 1:1 Langmuir kinetic fit
T4 construct: Whole IgG1; also called G2-Rituximab; G2 glycoform of IgG1 Fc

B1: X0 (VHH)
VHH: QVQLQESGGGLVQAGGSLRLSCAASPGISRYKTMGWYRQAPGKERSFVAAITWGGLTYYADSVKGRFTVSRDNAKNTVYLQMNSLKPEDTAVYYCSVDGGTRADPYHYYWGQGTQVTVSS
notes: also called clone X0; not shown: His tag and AviTag from the pET26-b(+) construct
IC50 (read off the curve) [1]: ~1000 nM

B2: B7 (VHH, not shown: small tags and cut ends)
VHH: B1 VHH with P26G, S46E, A50G, L56S, V69I, R102Y
notes: also called clone B7; nanobody B7
binding result [2]: no binding (tested: top concentration 256 nM)
EC50 (read off the curve) [3]: ~0.4 µg/mL

B3: C11 (VHH, not shown: small tags and cut ends)
VHH: B1 VHH with P26G, G27Y, K32H, S46E, A50G, L56S, V69I, S96A, R102Y
notes: also called clone C11; C11 parental clone
Kd [4]: 22800 nM

B4: mC11 (VHH)
VHH: B1 VHH with S29Y, M34I, G35A, Y59R, D104Q, Y106V
notes: also called clone mC11; not shown: His tag and AviTag from the pET26-b(+) construct
IC50 (read off the curve) [1]: ~400 nM
